Measured values taken from patent publication US11912794B2, “Modulation of structured polypeptide specificity” (BicycleRD Limited, priority 2011, dated 2024).
Numbered stars: 1 amine (or outer) side, 2 acyl side, 3 side chain; on linkers, the order of the positions; unused ones are H or OH. Bridge positions count the residues as written; N and C are the ends. Square brackets hold non-standard residues; d marks the D form. Ends that are not written are not given here. Peptide text beside a SMILES is read from it. Pro(trans-4-F) = O=C(O)[C@@H]1C[C@@H](F)CN1; Bip = N[C@@H](Cc1ccc(-c2ccccc2)cc1)C(=O)O; Dip = N[C@H](C(=O)O)C(c1ccccc1)c1ccccc1; 1Nal = N[C@@H](Cc1cccc2ccccc12)C(=O)O; TBMB = c1c(C[*:1])cc(C[*:3])cc1C[*:2]; hArg = N=C(N)NCCCC[C@H](N)C(=O)O; 3Pal = N[C@@H](Cc1cccnc1)C(=O)O; 4Pal = N[C@@H](Cc1ccncc1)C(=O)O; Aze = O=C(O)[C@@H]1CCN1

Tests used:
[1] = Plasma stability profiling method 1 (35% plasma, MALDI-TOF, qualitative); type: in vitro ADME, rat; conditions: 35% rat plasma, 37 deg C, method 1, comparative estimate
Description: Three methods were employed to assess the stability of bicycles (peptides conjugated to molecular scaffolds) in plasma.
A rapid plasma stability profiling assay was developed that employed mass spectrometric detection (MALDI-TOF, Voyager DE, Applied Biosystems) of the parent mass, until the time when the parent peptide mass was no longer observable. Specifically, 200 uM of peptide was incubated in the presence of 35% rat or human plasma (Sera labs, using citrate as anticoagulant) at 37 deg C., which was supplemented with 1×PBS (derived from a 10×PBS Stock, Sigma). At various time points (i.e. t=0, 3, 24 hrs, henceafter daily up to 10 days), 2 uL of sample was added to 18 uL of 30 mM ammonium bicarbonate in a 1:1 mixture of acetonitrile:H2O. Samples were frozen at −80 deg C. until the time of analysis. For mass spectrometric analysis that determines the approximate detection window of the peptide, the acetonitrile:H2O-diluted sample of a given time point was spotted directly (0.7 uL) onto the MALDI plate. Matrix (alpha-cyanocinnamic acid, Sigma, prepared as a saturated solution in 1:1 acetonitrile:water containing 0.1% trifluoroacetic acid) was layered over the sample (1 uL). At a similar laser intensity setting on the MALDI TOF, the time could then be determined until parent peptide was no longer detectable. It should be noted that this is a qualitative assay serves to detect relative changes in plasma stability.

[2] = molecular target: biotinylated human plasma Kallikrein (Homo sapiens, UniProt P03952); assay: Phage binding assay of individual clones, randomisation of peptide domains; conditions: for Rank (sequences ranked according to Kallikrein binding): randomised WPAR motif at positions 2, 3, 4 & 5 within the 06-34-03 sequence, 1 = best binding
Sequence of biotinylated human plasma Kallikrein (P03952 20-638): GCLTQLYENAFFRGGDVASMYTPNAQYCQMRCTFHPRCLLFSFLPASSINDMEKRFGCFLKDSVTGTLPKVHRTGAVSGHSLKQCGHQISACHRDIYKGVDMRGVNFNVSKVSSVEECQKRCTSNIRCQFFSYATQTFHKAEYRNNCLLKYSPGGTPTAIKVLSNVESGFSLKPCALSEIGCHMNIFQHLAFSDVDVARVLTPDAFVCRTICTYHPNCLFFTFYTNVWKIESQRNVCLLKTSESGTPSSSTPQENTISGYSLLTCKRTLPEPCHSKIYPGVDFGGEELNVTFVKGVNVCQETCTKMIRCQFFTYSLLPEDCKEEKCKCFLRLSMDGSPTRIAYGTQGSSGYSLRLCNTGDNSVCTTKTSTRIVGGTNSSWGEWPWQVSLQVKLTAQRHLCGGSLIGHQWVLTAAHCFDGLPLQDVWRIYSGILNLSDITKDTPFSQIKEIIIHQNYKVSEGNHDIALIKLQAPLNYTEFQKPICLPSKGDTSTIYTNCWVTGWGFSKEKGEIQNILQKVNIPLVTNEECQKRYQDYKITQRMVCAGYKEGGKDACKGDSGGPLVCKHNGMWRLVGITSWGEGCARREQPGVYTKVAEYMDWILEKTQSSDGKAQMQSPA
From the text: Library construction: Small phage libraries were generated according to the methods of Heinis et al as described in ‘Cloning of phage libraries’ above. The sficx3ba primer was modified such that the bicycle-encoding portion was based on a parent 5×5 bicycle (5×5: two 5-residue loops) DNA sequence with only 4-6 codons randomized to NNS. The randomized codons were those encoding the peptide domain/motif of interest.
Assay of binding of individual clones: Library transformant colonies, or selection output colonies, were picked and grown as individual cultures in 2TY broth containing selective antibiotic. The picked colonies were DNA-sequenced using a QIAgen PyroMark Q96 DNA sequencer to reveal the amino-acid substitution present in each clone, and were assayed for human plasma Kallikrein binding as follows. The phage-containing supernatant was harvested from the culture and phage were cyclised with tris bromomethyl benzene(TBMB) based on the methods of Heinis et al (Nature Chemical Biology vol. 5 pp 502-507 (2009)). The purified phage from this process were assayed for binding to biotinylated human plasma Kallikrein using a homogeneous plate-based binding assay; assay read-out measured on a BMG Labtech Pherastar FS plate reader. The quantitative binding data from duplicate assay samples was averaged (mean) and expressed as signal:background. Assay data shown is representative of at least 2 independent experiments. The assay data was correlated with the peptide sequences.
The WPAR (SEQ ID NO: 18) motif identified from Example 1 was analysed in the context of the 06-34-03 peptide, in order to identify alternatives or improvements to the WPAR (SEQ ID NO: 18) motif. A library was constructed where positions 1, 6, 7, 8, 9 &10 of 06-34-03 were fixed and positions 2, 3, 4 & 5 were randomised (see ‘Randomisation of peptide domains—Library construction’ in Methods above). Selections against human plasma Kallikrein were performed at a variety of stringencies (see Phage selections' in Methods above). All output sequences were identified and analysed for target binding (see ‘Randomisation of peptide domains—Assay of binding of individual clones’ in Methods above). Table 17 lists each unique sequence, its relative abundance in the selection output (frequency), and a rank number according to target binding strength.
Selections against human plasma Kallikrein were performed with this library in order to study the non-WPAR (SEQ ID NO: 18) determinants of Kallikrein binding, and to isolate the optimal WPAR (SEQ ID NO: 18)-containing peptide sequence. Over 150 selection output sequences were isolated and screened for binding to human plasma Kallikrein (as described in Methods above). The sequences were ranked in order of Kallikrein binding and the top 50 sequences were aligned in Table 19. […]

Biotinylated hPK = molecular target: T1, Biotinylated hPK (Homo sapiens, UniProt P03952); assay: Phage selections, abundance of sequences in selection outputs; type: binding; conditions: for Frequency (relative abundance in the total selection outputs): randomised WPAR motif at positions 2, 3, 4 & 5 within the 06-34-03 sequence
T1 construct: IHPKA, from human plasma; purchased Innovative Research, Novi, MI, USA IHPKA; host or cells: human plasma
T1 sequence (P03952 20-638): as above

Row | Compound | Observable in rat plasma, for days [1] [days] | Rank (sequences ranked according to Kallikrein binding) [2] | Frequency (relative abundance in the total selection outputs) (Biotinylated hPK) | also measured
1 | CC(=O)N[C@H]1CSCc2cc3cc(c2)CSC[C@H](NC(=O)[C@H](CCCNC(=N)N)NC(=O)[C@H](C)NC(=O)[C@@H]2CCCN2C(=O)[C@H](Cc2cccc4ccccc24)NC(=O)[C@H](CO)NC1=O)C(=O)N[C@@H](CC(C)C)C(=O)N[C@@H](Cc1c[nH]cn1)C(=O)N[C@@H](CCC(N)=O)C(=O)N[C@@H](CC(=O)O)C(=O)N[C@@H](CC(C)C)C(=O)N[C@H](C(N)=O)CSC3 [Ac-(06-34-18) 1NAL2] (Ac-CS[1Nal]PARCLHQDLC-NH2; linker 1-7-13 via TBMB) | 2 |  |  | 
2 | CC(=O)N[C@H]1CSCc2cc3cc(c2)CSC[C@H](NC(=O)[C@H](CCCNC(=N)N)NC(=O)[C@H](C)NC(=O)[C@@H]2CCCN2C(=O)[C@H](C(c2ccccc2)c2ccccc2)NC(=O)[C@H](CO)NC1=O)C(=O)N[C@@H](CC(C)C)C(=O)N[C@@H](Cc1c[nH]cn1)C(=O)N[C@@H](CCC(N)=O)C(=O)N[C@@H](CC(=O)O)C(=O)N[C@@H](CC(C)C)C(=O)N[C@H](C(N)=O)CSC3 [Ac-(06-34-18) 3,3-DPA2] (Ac-CS[Dip]PARCLHQDLC-NH2; linker 1-7-13 via TBMB) | 2 |  |  | 
3 | CC(=O)N[C@H]1CSCc2cc3cc(c2)CSC[C@H](NC(=O)[C@H](CCCNC(=N)N)NC(=O)[C@H](C)NC(=O)[C@@H]2CCCN2C(=O)[C@H](Cc2cccnc2)NC(=O)[C@H](CO)NC1=O)C(=O)N[C@@H](CC(C)C)C(=O)N[C@@H](Cc1c[nH]cn1)C(=O)N[C@@H](CCC(N)=O)C(=O)N[C@@H](CC(=O)O)C(=O)N[C@@H](CC(C)C)C(=O)N[C@H](C(N)=O)CSC3 [Ac-(06-34-18) 3Pal2] (Ac-CS[3Pal]PARCLHQDLC-NH2; linker 1-7-13 via TBMB) | 2 |  |  | 
4 | CC(=O)N[C@H]1CSCc2cc3cc(c2)CSC[C@H](NC(=O)[C@H](CCCNC(=N)N)NC(=O)[C@H](C)NC(=O)[C@@H]2CCCN2C(=O)[C@H](Cc2ccc(-c4ccccc4)cc2)NC(=O)[C@H](CO)NC1=O)C(=O)N[C@@H](CC(C)C)C(=O)N[C@@H](Cc1c[nH]cn1)C(=O)N[C@@H](CCC(N)=O)C(=O)N[C@@H](CC(=O)O)C(=O)N[C@@H](CC(C)C)C(=O)N[C@H](C(N)=O)CSC3 [Ac-(06-34-18) 4,4,BPal2] (Ac-CS[Bip]PARCLHQDLC-NH2; linker 1-7-13 via TBMB) | 2 |  |  | 
5 | CC(=O)N[C@H]1CSCc2cc3cc(c2)CSC[C@H](NC(=O)[C@H](CCCNC(=N)N)NC(=O)[C@H](C)NC(=O)[C@@H]2C[C@@H](F)CN2C(=O)[C@H](Cc2c[nH]c4ccccc24)NC(=O)[C@H](CO)NC1=O)C(=O)N[C@@H](CC(C)C)C(=O)N[C@@H](Cc1c[nH]cn1)C(=O)N[C@@H](CCC(N)=O)C(=O)N[C@@H](CC(=O)O)C(=O)N[C@@H](CC(C)C)C(=O)N[C@H](C(N)=O)CSC3 [Ac-(06-34-18) 4FluoPro3] (Ac-CSW[Pro(trans-4-F)]ARCLHQDLC-NH2; linker 1-7-13 via TBMB) | 2 |  |  | 
6 | CC(=O)N[C@H]1CSCc2cc3cc(c2)CSC[C@H](NC(=O)[C@H](CCCNC(=N)N)NC(=O)[C@H](C)NC(=O)[C@@H]2CCCN2C(=O)[C@H](Cc2ccncc2)NC(=O)[C@H](CO)NC1=O)C(=O)N[C@@H](CC(C)C)C(=O)N[C@@H](Cc1c[nH]cn1)C(=O)N[C@@H](CCC(N)=O)C(=O)N[C@@H](CC(=O)O)C(=O)N[C@@H](CC(C)C)C(=O)N[C@H](C(N)=O)CSC3 [Ac-(06-34-18) 4Pal2] (Ac-CS[4Pal]PARCLHQDLC-NH2; linker 1-7-13 via TBMB) | 2 |  |  | 
7 | CC(=O)N[C@H]1CSCc2cc3cc(c2)CSC[C@H](NC(=O)[C@H](CCCCNC(=N)N)NC(=O)[C@H](C)NC(=O)[C@@H]2CCN2C(=O)[C@H](Cc2c[nH]c4ccccc24)NC(=O)[C@H](CO)NC1=O)C(=O)N[C@@H](CC(C)C)C(=O)N[C@@H](Cc1c[nH]cn1)C(=O)N[C@@H](CCC(N)=O)C(=O)N[C@@H](CC(=O)O)C(=O)N[C@@H](CC(C)C)C(=O)N[C@H](C(N)=O)CSC3 [Ac-(06-34-18) Aze3 HomoArg5] (Ac-CSW[Aze]A[hArg]CLHQDLC-NH2; linker 1-7-13 via TBMB) | >10 |  |  | 
8 | SEQ ID NO: 85 (CSLPFRCTHQDLC; Synthetic sequence Kallikrein binder identified from selections using a randomised WPAR motif at positions 2, 3, 4 & 5 within the 06-34-03 sequence of PCT/EP2012/069898 (SEQ ID NO 58)) |  | 13 | 3 | 
9 | SEQ ID NO: 88 (CSLPFKCTHQDLC; Synthetic sequence Kallikrein binder identified from selections using a randomised WPAR motif at positions 2, 3, 4 & 5 within the 06-34-03 sequence of PCT/EP2012/069898 (SEQ ID NO 58)) |  | 16 | 1 | 
10 | SEQ ID NO: 89 (CSLPFRCTHQDLC; Synthetic sequence Kallikrein binder identified from selections using a randomised WPAR motif at positions 2, 3, 4 & 5 within the 06-34-03 sequence of PCT/EP2012/069898 (SEQ ID NO 58)) |  | 17 | 4 | 
11 | SEQ ID NO: 92 (CSLPFKCTHQDLC; Synthetic sequence Kallikrein binder identified from selections using a randomised WPAR motif at positions 2, 3, 4 & 5 within the 06-34-03 sequence of PCT/EP2012/069898 (SEQ ID NO 58)) |  | 20 | 1 | 
12 | SEQ ID NO: 97 (CSLPFRCTHQDLC; Synthetic sequence Kallikrein binder identified from selections using a randomised WPAR motif at positions 2, 3, 4 & 5 within the 06-34-03 sequence of PCT/EP2012/069898 (SEQ ID NO 58)) |  | 25 | 2 | 
13 | WPAR: phage clone: WPAR at positions 2-5 within the 06-34-03 sequence, TBMB-cyclised (also: TBMB-cyclised within the 06-34-03 context, the cysteines lie outside this motif) |  |  |  | Kallikrein binding in target binding assay [2]: optimal sequence for Kallikrein binding; Relative abundance of motif in selection output (Biotinylated hPK; 2nd stringency from High (1st value of cell)): 19%; Relative abundance of motif in selection output (Biotinylated hPK; 3rd stringency from High (2nd value of cell)): 13%; Relative abundance of motif in selection output (Biotinylated hPK; 4th stringency from High (3rd value of cell)): 22%; Relative abundance of motif in selection output (Biotinylated hPK; 5th stringency from High (4th value of cell)): 6%; Relative abundance of motif in selection output (Biotinylated hPK; stringency High): 17%; Relative abundance of motif in selection output (Biotinylated hPK; stringency LOW): 4%
